For experiment [1], the target named is HLA-A*01:01. Put plainly: IEDB peptide-MHC binding, purified MHC/direct/fluorescence; filed as Kd, often an IC50 or EC50 that approximates it; ≥ and ≤ were set here for values at or beyond the usual limits of such assays.
The target of experiment [2] is HLA-A*02:01. Described as above.
The target in experiment [3] is HLA-A*03:01. The experiment is described as above.
Experiment [4] concerns the target HLA-A*11:01. The description is as above.
The target of experiment [5] is HLA-A*26:01. The experiment is described as above.
For experiment [6], the target named is HLA-A*31:01. The experiment is described as above.
Experiment [7] has as its target HLA-A*69:01. Described as above.
Experiment [8] deals with HLA-B*07:02. The experiment is described as above.
The target of experiment [9] is HLA-B*08:01. The experiment is described as above.
For experiment [10], the target named is HLA-B*15:01. The experiment is described as above.
For experiment [11], the target named is HLA-B*15:17. The experiment is described as above.
For experiment [12], the target named is HLA-B*27:05. The experiment is described as above.
The target of experiment [13] is HLA-B*35:01. The experiment is described as above.
The target of experiment [14] is HLA-B*40:01. The description is as above.
Experiment [15] concerns the target HLA-B*44:02. The experiment is described as above.
Experiment [16] addresses HLA-B*58:01. Described as above.
Experiment [17] addresses HLA-C*15:02. The description is as above.
Experiment [18] addresses HLA-A*02:01. Briefly: IEDB peptide-MHC binding, purified MHC/competitive/fluorescence; filed as Kd, often an IC50 or EC50 that approximates it; ≥ and ≤ were set here for values at or beyond the usual limits of such assays. Particulars: source organism: Vibrio parahaemolyticus K5030.
In experiment [19] the target is HLA-A*02:03. The description is as above. Particulars: source organism: Vibrio parahaemolyticus K5030.
The target of experiment [20] is HLA-A*02:11. The experiment is described as above. Particulars: source organism: Vibrio parahaemolyticus K5030.
Experiment [21] deals with HLA-A*02:12. The experiment is described as above. To be noted: source organism: Vibrio parahaemolyticus K5030.
In experiment [22] the target is HLA-A*02:19. Described as above. Particulars: source organism: Vibrio parahaemolyticus K5030.
The target in experiment [23] is HLA-A*03:01. The description is as above. Particulars: source organism: Vibrio parahaemolyticus K5030.
In experiment [24] the target is HLA-A*26:01. The description is as above. To be noted: source organism: Vibrio parahaemolyticus K5030.
In experiment [25] the target is HLA-A*29:02. Described as above. To be noted: source organism: Vibrio parahaemolyticus K5030.
Experiment [26] concerns the target HLA-B*15:01. The experiment is described as above. Particulars: source organism: Vibrio parahaemolyticus K5030.
The target of experiment [27] is HLA-B*18:01. Described as above. To be noted: source organism: Vibrio parahaemolyticus K5030.
Experiment [28] deals with HLA-B*27:03. Described as above. To be noted: source organism: Vibrio parahaemolyticus K5030.
Experiment [29] addresses HLA-B*39:01. The experiment is described as above. To be noted: source organism: Vibrio parahaemolyticus K5030.
For experiment [30], the target named is HLA-B*46:01. Described as above. To be noted: source organism: Vibrio parahaemolyticus K5030.
Experiment [31] has as its target HLA-B*51:01. The description is as above. Particulars: source organism: Vibrio parahaemolyticus K5030.
Experiment [32] has as its target HLA-B*57:01. The experiment is described as above. Particulars: source organism: Vibrio parahaemolyticus K5030.
Experiment [33] addresses HLA-A*02:01. Put plainly: IEDB peptide-MHC binding, purified MHC/competitive/fluorescence; ≥ and ≤ were set here for values at or beyond the usual limits of such assays.
Experiment [34] concerns the target HLA-B*15:01. The description is as above.
The target in experiment [35] is HLA-B*57:01. Put plainly: IEDB peptide-MHC binding, purified MHC/direct/fluorescence; filed as Kd, often an IC50 or EC50 that approximates it; ≥ and ≤ were set here for values at or beyond the usual limits of such assays.
Experiment [36] concerns the target HLA-A*23:01. The experiment is described as above. To be noted: source organism: Orthohantavirus hantanense.
Experiment [37] concerns the target HLA-A*24:03. The experiment is described as above.
For experiment [38], the target named is HLA-A*30:01. The experiment is described as above. To be noted: source organism: Pseudomonas aeruginosa.
In experiment [39] the target is HLA-A*24:02. Put plainly: IEDB peptide-MHC binding, purified MHC/competitive/fluorescence; ≥ and ≤ were set here for values at or beyond the usual limits of such assays. Particulars: source organism: Zaire ebolavirus.
For experiment [40], the target named is HLA-A*03:01. Described as above. Particulars: source organism: Zaire ebolavirus.
Experiment [41] has as its target HLA-A*11:01. The experiment is described as above. Particulars: source organism: Zaire ebolavirus.
[42] abbreviates: source organism: Giardia lamblia ATCC 50803.
Setting [43] is: source organism: Vaccinia virus.
Where [44] appears, read: source organism: Camelpox virus M-96.
The mark [45] stands for this setting: source organism: Zaire ebolavirus.
The mark [46] stands for this setting: source organism: Pseudomonas savastanoi.
Setting [47] is: source organism: Pseudomonas aeruginosa.
Where [48] appears, read: source organism: Campylobacter jejuni RM1221.
Where [49] appears, read: source organism: Campylobacter jejuni.

One may read the Kd as a measure of binding affinity in units of concentration. Lower therefore signals tighter binding. As to ITASKDLCF, the dissociation constant (Kd) in experiment [1] (setting [42]) was 8.69 µM; in [2] (setting [42]), not below 20 µM; in [3] (setting [42]), not below 20 µM; in experiment [4] (setting [42]) it was not below 20 µM; in [5] (setting [42]), not below 20 µM; in experiment [6] (setting [42]) it was not below 20 µM. For the same sequence, the equilibrium dissociation constant (Kd) in [7] (setting [42]) is not below 20 µM; in experiment [8] (setting [42]) it was not below 20 µM; in experiment [9] (setting [42]) it was not below 20 µM; in experiment [10] (setting [42]) it was 0.301 µM; in experiment [11] (setting [42]) it was 0.0028 µM; in experiment [12] (setting [42]) it was not below 20 µM. Further, the equilibrium dissociation constant (Kd) was 0.365 µM in experiment [13] (setting [42]); not below 20 µM in [14] (setting [42]); not below 20 µM in experiment [15] (setting [42]); 0.433 µM in [16] (setting [42]); 3.85 µM in experiment [17] (setting [42]).

For AGGWVLWKV, the Kd in [18] is not below 20 µM; in [19], not below 20 µM; in experiment [20], 0.0015 µM; in [21] it was not below 20 µM; in experiment [22] it was not below 20 µM; in [23] it was not below 20 µM. The Kd in experiment [24], in experiment [25], in experiment [26], in [27], in experiment [28] and in experiment [29] was not below 20 µM in each case. Besides, the Kd in experiment [30], in [31] and in experiment [32] was not below 20 µM in each case.

Regarding TNFEFFGKL, in [17] (source organism: Caenorhabditis elegans), the equilibrium dissociation constant (Kd) was 1.6 µM.

The IC50 is the point on the concentration scale where inhibition reaches its midpoint. The low end stands for inhibition by little substance, the high end for a need for much substance. In the case of SQYVDDANL, the IC50 was 45.4 µM in experiment [33] (setting [43]) and not below 404 µM in [34] (setting [43]).

Consider KSLVQYIKF, for which the Kd is 0.508 µM in experiment [35] (setting [44]), 0.0635 µM in experiment [16] (setting [44]) and not below 20 µM in experiment [17] (source organism: Vaccinia virus WR).

For FFQNETQKY, the Kd in [36] was determined as 1.4 µM; in experiment [37] (source organism: Orthohantavirus hantanense), 1.3 µM.

Take QLIIQAFEA: the figures for the IC50 in [33] (setting [45]) and in [34] (setting [45]) were 0.884 µM and not below 720 µM, respectively.

Turning to TYYPQVVLG, the Kd in experiment [1] (setting [46]) was not below 20 µM; in [2] (setting [46]) it was not below 20 µM; in [3] (setting [46]), not below 20 µM; in experiment [4] (setting [47]), 5.12 µM; in experiment [37] (setting [47]) it was 3.2 µM; in [38], not below 10 µM. Moreover, the Kd in experiment [7] (setting [46]), in [8] (setting [46]), in experiment [9] (setting [46]), in experiment [10] (setting [47]), in experiment [12] (setting [46]) and in experiment [14] (setting [46]) was not below 20 µM in each case. Further, the Kd in experiment [16] (setting [47]) was determined as 6.85 µM.

On to RATTELRTF, for which the IC50 was 0.6 µM in experiment [39] and 55.5 µM in [34] (setting [45]).

AALSSLAKH: the IC50 in experiment [33] (setting [45]) was not below 98.5 µM; in experiment [40], not below 92.7 µM; in experiment [41], 9.21 µM; in experiment [34] (setting [45]), not below 156 µM.

On to KSNEKNMDF, for which the dissociation constant (Kd) in experiment [2] (setting [48]), in [3] (setting [48]), in [4] (setting [48]), in [5] (setting [48]), in experiment [6] (setting [48]) and in [7] (setting [48]) was not below 20 µM in each case. For the same sequence, the equilibrium dissociation constant (Kd) in [8] (setting [48]) was not below 20 µM; in experiment [9] (setting [48]), not below 20 µM; in experiment [10] (setting [49]), 0.215 µM; in experiment [11] (setting [48]), 0.0073 µM; in experiment [12] (setting [48]), not below 20 µM; in experiment [13] (setting [49]), 3.16 µM. In addition, the Kd in experiment [14] (setting [48]) was not below 20 µM; in experiment [15] (setting [48]) it was not below 20 µM; in [35] (setting [48]), 0.467 µM; in experiment [16] (setting [49]), 0.063 µM; in [17] (source organism: Campylobacter jejuni subsp. jejuni NCTC 11168 = ATCC 700819) it was 0.15 µM.
